According to article PMC5508204, “Escherichia coli FtsA forms lipid-bound minirings that antagonize lateral interactions between FtsZ protofilaments” (Nature Communications, 2017):

B1: Escherichia coli FtsA (natural protein, E. coli, UniProt P0ABH0 1-420, looked up)
chain: MIKATDRKLVVGLEIGTAKVAALVGEVLPDGMVNIIGVGSCPSRGMDKGGVNDLESVVKCVQRAIDQAELMADCQISSVYLALSGKHISCQNEIGMVPISEEEVTQEDVENVVHTAKSVRVRDEHRVLHVIPQEYAIDYQEGIKNPVGLSGVRMQAKVHLITCHNDMAKNIVKAVERCGLKVDQLIFAGLASSYSVLTEDERELGVCVVDIGGGTMDIAVYTGGALRHTKVIPYAGNVVTSDIAYAFGTPPSDAEAIKVRHGCALGSIVGKDESVEVPSVGGRPPRSLQRQTLAEVIEPRYTELLNLVNEEILQLQEKLRQQGVKHHLAAGIVLTGGAAQIEGLAACAQRVFHTQVRIGAPLNITGLTDYAQEPYYSTAVGLLHYGKESHLNGEAEVEKRVTASVGSWIKRLNSWLRKEF
notes: FtsA, actin homologue of the divisome, Escherichia coli, wild type; ATP is thought to be present in the preparation; 0.05 mM ADP was added for storage; also called WT FtsA; His6-tagged FtsA

Columns and labels:
[1] = target: the molecule itself; assay: negative stain transmission electron microscopy on lipid monolayers; E. coli polar lipid monolayer under an EM grid, on storage buffer lacking EDTA (50 mM Tris pH 7.5, 250 mM KCl, 10 mM MgCl2, 10% glycerol). Added in turn: 0.1-1 uM FtsA (40 min), 4 mM ATP (20 min), 5 uM FtsZ (5 min), 4 mM GTP (20 min). Stained with 1% uranyl acetate.
[2] = target: B1; assay: as above; details: both partners purified
[3] = target: the molecule itself; assay: negative stain electron tomography with subtomogram averaging; FtsA minirings with FtsZ protofilaments on lipid monolayers; 300 kV, single-axis tilt series -60 to +60 degrees; 23 tomograms; 18,400 ring-like structures averaged and classified

binding result [2] | Binder | binding result [1] | stoichiometry N [3] [subunits]
binds | Escherichia coli FtsZ (natural protein, E. coli, UniProt P0A9A6 1-383, looked up, FtsZ, tubulin homologue, Escherichia coli, wild type; Assembled with GTP in the assay; also called WT FtsZ; source: E. coli BL21(DE3), from a pET11 plasmid, purified (ammonium sulfate precipitation)) MFEPMELTNDAVIKVIGVGGGGGNAVEHMVRERIEGVEFFAVNTDAQALRKTAVGQTIQIGSGITKGLGAGANPEVGRNAADEDRDALRAALEGADMVFIAAGMGGGTGTGAAPVVAEVAKDLGILTVAVVTKPFNFEGKKRMAFAEQGITELSKHVDSLITIPNDKLLKVLGRGISLLDAFGAANDVLKGAVQGIAELITRPGLMNVDFADVRTVMSEMGYAMMGSGVASGEDRAEEAAEMAISSPLLEDIDLSGARGVLVNITAGFDLRLDEFETVGNTIRAFASDNATVVIGTSLDPDMNDELRVTVVATGIGMDKRPEITLVTNKQVQQPVMDRYQQHGMAPLTQEQKPVAKVVNDNAPQTAKEPDYLDIPAFLRKQAD | binds | 
binds | FtsZ* (FtsZ L169R) (natural protein, E. coli, UniProt P0A9A6 1-383, looked up, FtsZ, Escherichia coli, gain-of-function mutant L169R (FtsZ*); Assembled with GTP in the assay; source: E. coli BL21(DE3), from a pET11 plasmid, purified (ammonium sulfate precipitation)) MFEPMELTNDAVIKVIGVGGGGGNAVEHMVRERIEGVEFFAVNTDAQALRKTAVGQTIQIGSGITKGLGAGANPEVGRNAADEDRDALRAALEGADMVFIAAGMGGGTGTGAAPVVAEVAKDLGILTVAVVTKPFNFEGKKRMAFAEQGITELSKHVDSLITIPNDKLRKVLGRGISLLDAFGAANDVLKGAVQGIAELITRPGLMNVDFADVRTVMSEMGYAMMGSGVASGEDRAEEAAEMAISSPLLEDIDLSGARGVLVNITAGFDLRLDEFETVGNTIRAFASDNATVVIGTSLDPDMNDELRVTVVATGIGMDKRPEITLVTNKQVQQPVMDRYQQHGMAPLTQEQKPVAKVVNDNAPQTAKEPDYLDIPAFLRKQAD | binds | 
 | B1 |  | 12
